The values that follow come from publication PMC13313556, “Development and characterization of triazole-based WDR5 inhibitors for the treatment of glioblastoma” (JCI Insight, 2026).

The target of the experiment is His6-SUMO-WDR5 (recombinant human WD-repeat containing protein 5, residues Ser22-Cys334) (human, UniProt P61964 22-334). Nature of the experiment: AlphaScreen or HTRF; competitive TR-FRET: 1 nM LanthaScreen Elite Tb-anti-His antibody, 150 nM 10-mer-Thr-FAM peptide, 2 nM His6-SUMO-WDR5 in 1X PBS pH 7.2, 300 mM NaCl, 0.5 mM TCEP, 0.1% CHAPS; 1 hour at room temperature; small-molecule inhibitors titrated to displace the peptide. As to conditions: both partners purified. (In general: Bead proximity is the source of the signal in Alpha formats.)

B1: 10-mer-Thr-FAM peptide probe (ARTEVHLRKS-[Ahx-Ahx][Lys-(5-FAM)]) (peptide)
peptide: ARTEVHLRKS
modifications: C-terminal Ahx-Ahx followed by Lys-(5-FAM)
notes: WIN-site peptide probe; After the ten printed residues come two aminohexanoic acid (Ahx) units and a lysine that carries 5-FAM; also called labeled WIN-site peptide; labeled WIN-peptide; source: synthetic peptide (GenScript)
As to B1, the binding result is listed as “binds”.
